Reference: patent publication US20190359687A1 (Bayer, published 2019)

T1: human glycophorin A on human red blood cells or red blood cell membranes (human, UniProt P02724 20-150)
T1 construct: whole, on cells; also called hRBC; human RBC membranes
T1 sequence (looked up): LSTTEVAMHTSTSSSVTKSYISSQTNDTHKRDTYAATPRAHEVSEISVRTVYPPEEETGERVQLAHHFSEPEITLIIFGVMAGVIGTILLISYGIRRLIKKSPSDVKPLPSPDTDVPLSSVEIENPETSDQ

T2: human glycophorin A in the red blood cell membrane (human, UniProt P02724 20-150)
T2 construct: whole, on cells; used for intact RBC, isolated RBC membranes and transfected cells; the assay field tells which; also called GPA; hGPA
T2 sequence (looked up): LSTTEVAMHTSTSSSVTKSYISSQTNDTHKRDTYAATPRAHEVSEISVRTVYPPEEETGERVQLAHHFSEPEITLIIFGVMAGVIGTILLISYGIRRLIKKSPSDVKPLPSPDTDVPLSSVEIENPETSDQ

T3: purified human glycophorin A protein (Sigma, cat # G5017) (human, UniProt P02724 20-150)
T3 construct: mature; also called Sigma hGPA; Sigma GPA
T3 sequence (looked up): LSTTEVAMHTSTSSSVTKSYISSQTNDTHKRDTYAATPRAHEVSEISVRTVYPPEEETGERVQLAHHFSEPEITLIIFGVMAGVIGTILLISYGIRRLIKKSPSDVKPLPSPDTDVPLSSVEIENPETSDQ

T4: Rhesus monkey glycophorin A on Rhesus monkey red blood cells (Rhesus monkey, UniProt A0A1D5Q349 20-150)
T4 construct: whole, on cells; also called Rhesus RBC; monkey GPA
T4 sequence: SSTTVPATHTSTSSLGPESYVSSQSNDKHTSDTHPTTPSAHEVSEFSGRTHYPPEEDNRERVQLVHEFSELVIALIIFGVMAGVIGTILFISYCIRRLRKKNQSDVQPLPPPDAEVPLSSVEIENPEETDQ


Assays:
[1] = molecular target: T1, human glycophorin A on human red blood …; test: SPR (Biacore), Fab on human RBC membranes; * not accurate, instrument limit;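 on kd: human RBC membranes captured on an L1 sensor chip, Fab fragments passed over as analyte, binding kinetics read by surface plasmon resonance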;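 on koff: human RBC membranes captured on an L1 sensor chip, Fab fragments passed over as analyte, binding kinetics read by surface plasmon resonance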
Method: (§1) Kinetic analysis of the antibody binding to human red blood cell membranes was also performed using surface plasmon resonance (SPR) using a Biacore instrument. In this assay membranes prepared from human red blood cells were attached to a L1 sensor matrix and antibodies were flowed over the RBC membranes.
(§2) The binding kinetics of the affinity matured Fab antibodies was also measured.

[2] = molecular target: T1, human glycophorin A on human red blood …; test: SPR (Biacore), Fab on human RBC membranes; T½ = 0.69/kd;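 on kd: human RBC membranes captured on an L1 sensor chip, Fab fragments passed over as analyte, binding kinetics read by surface plasmon resonance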
Method: as §1, §2

[3] = molecular target: T1, human glycophorin A on human red blood …; test: SPR (Biacore), Fab on human RBC membranes;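 further: human RBC membranes captured on an L1 sensor chip, Fab fragments passed over as analyte, binding kinetics read by surface plasmon resonance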
Method: as §1, §2

[4] = molecular target: T5, Cynomolgus monkey glycophorin A on Cynomolgus monkey red blood cells (Cynomolgus monkey); test: FACS, RBC Cy02
T5 construct: whole, on cells; also called Cyno RBC; Cyno GPA
Method: (§3) The binding of the humanized variants to intact red blood cells (RBC) from humans (Hu01 to 03; 3 individuals), Rhesus monkey (Rh01 to 03; 3 individuals) and Cynomolgus monkey (Cy01 to 02; 2 individuals) was measured by fluorescence activated cell sorting (FACS).

[5] = molecular target: T2, human glycophorin A in the red blood …; test: FACS, RBC Hu02
Method: as §3

[6] = molecular target: T5, Cynomolgus monkey glycophorin A on …; test: FACS, RBC Cy01
Method: as §3

[7] = molecular target: T3, purified human glycophorin A protein …; test: ELISA, IgG
[8] = molecular target: T2, human glycophorin A in the red blood …; test: FACS, RBC Hu01
Method: as §3

[9] = molecular target: T4, Rhesus monkey glycophorin A on Rhesus …; test: FACS, RBC Rh03
Method: as §3

[10] = molecular target: T4, Rhesus monkey glycophorin A on Rhesus …; test: FACS, RBC Rh02
[11] = molecular target: T4, Rhesus monkey glycophorin A on Rhesus …; test: FACS, RBC Rh01
Method: as §3

[12] = molecular target: T2, human glycophorin A in the red blood …; test: FACS, RBC Hu03
Method: as §3

[13] = molecular target: T6, Cynomolgus monkey glycophorin A on Cynomolgus monkey red blood cells or red blood cell membranes (Cynomolgus monkey); test: Fab 7 ug/ml on intact cyno RBC, unbound Fab by ELISA; pre-dilution
T6 construct: whole, on cells; also called Cyno RBC; Cynomolgus monkey RBC membranes

[14] = molecular target: T1, human glycophorin A on human red blood …; test: Fab on intact human RBC, unbound Fab by ELISA; 0 min after 200-fold dilution
Method: (§4) The binding of affinity matured Fab antibodies to intact human RBC was also measured. Human RBC were isolated from fresh anti-coagulated normal human blood by centrifugation through a ficol gradient and washing in PBS buffer. RBC diluted to 1/10th of normal hematocrit were incubated with purified Fab antibodies at a final concentration of 7 ug/ml for 1 hour at room temperature on a rotating shaker after which a sample was taken and the RBC were pelleted by centrifugation and the supernatant was collected. The remaining RBC suspension was diluted 200-fold in PBS buffer and incubated for a total of 2 hours at room temperature on a rotating shaker and samples were removed at 0, 5 min, 20 min, 1 h and 2 h and the RBC pelleted and the supernatant collected. The amount of Fab in the supernatants was then measured using an ELISA assay and the results used to calculate the percentage of the input Fab that was bound to the RBC. […] The percentage that remains bound after 200-fold dilution of the RBC suspension is an indication of the overall strength of the binding to human RBC.

[15] = molecular target: T6, Cynomolgus monkey glycophorin A on …; test: Fab on intact cyno RBC, unbound Fab by ELISA; 5 min after 200-fold dilution
[16] = molecular target: T1, human glycophorin A on human red blood …; test: Fab on intact human RBC, unbound Fab by ELISA; 20 min after 200-fold dilution
Method: as §4

[17] = molecular target: T1, human glycophorin A on human red blood …; test: Fab on intact human RBC, unbound Fab by ELISA; 5 min after 200-fold dilution
Method: as §4

[18] = molecular target: T1, human glycophorin A on human red blood …; test: Fab 7 ug/ml on intact human RBC, unbound Fab by ELISA; pre-dilution
[19] = molecular target: T1, human glycophorin A on human red blood …; test: Fab on intact human RBC, unbound Fab by ELISA; 60 min after 200-fold dilution
Method: as §4

[20] = molecular target: T6, Cynomolgus monkey glycophorin A on …; test: Fab on intact cyno RBC, unbound Fab by ELISA; 60 min after 200-fold dilution
Method: (§5) The binding of affinity matured Fab antibodies to intact Cynomolgus monkey RBC was measured. Cynomolgus monkey RBC were isolated from fresh anti-coagulated blood by centrifugation through a ficol gradient and washing in PBS buffer. RBC diluted to 1/10th of normal hematocrit were incubated with the Fab at a final concentration of 7 ug/ml for 1 hour at room temperature on a rotating shaker after which a sample was taken and the RBC were pelleted by centrifugation and the supernatant was collected. The remaining RBC suspension was diluted 200-fold in PBS buffer and incubated for a total of 2 hours at room temperature on a rotating shaker and samples were removed at 0, 5 min, 20 min, 1 h and 2 h and the RBC pelleted and the supernatant collected. […] The amount of Fab in the supernatants was then measured using an ELISA assay and the results used to calculate the percentage of the input Fab that was bound to the RBC.

[21] = molecular target: T1, human glycophorin A on human red blood …; test: Fab on intact human RBC, unbound Fab by ELISA; 120 min after 200-fold dilution
[22] = molecular target: T6, Cynomolgus monkey glycophorin A on …; test: Fab on intact cyno RBC, unbound Fab by ELISA; 20 min after 200-fold dilution
[23] = molecular target: T6, Cynomolgus monkey glycophorin A on …; test: Fab on intact cyno RBC, unbound Fab by ELISA; 120 min after 200-fold dilution
Method: as §5

| Estimated T½ [2] | Kd [3] | koff [3] | kon [3] | fluorescence intensity [4] | fluorescence intensity [5] | fluorescence intensity [6] | EC50 [7] | fluorescence intensity [8] | fluorescence intensity [9] | fluorescence intensity [10] | fluorescence intensity [11] | fluorescence intensity [12] | Binder | also measured |
| --- | --- | --- | --- | --- | --- | --- | --- | --- | --- | --- | --- | --- | --- | --- |
| 12 min | 0.0829 nM | 0.00097 s⁻¹ |  |  |  |  |  |  |  |  |  |  | TPP-7776, affinity matured 6C12 Fab (Fab, V domains shown, Tested as Fab) VH: EVQLVQSGAEVKKPGASVKVSCKASGYTFTTYAIHWVRQAPGQGLEWMGYINPSSGYTRYNPKFKGRVTMTRDKSTSTAYMELRSLRSDDTAVYYCQTGTRDYWGQGTTVTVSS VL: DIQLTQSPSFLSASVGDRVTITCRASSSVRYIYWFQQKPGKAPKLLIYATSTLRSGVPSRFSGSGSGTEYTLTISSLQPEDFATYYCHQRNSFPYTFGQGTKLEIK | kon [1]: 1.17e+07 M⁻¹ s⁻¹ |
| 31 min | 0.0499 nM | 0.000371 s⁻¹ | 7.44e+06 M⁻¹ s⁻¹ |  |  |  |  |  |  |  |  |  | TPP-7777, affinity matured 6C12 Fab (Fab, V domains shown, Tested as Fab) VH: EVQLVQSGAEVKKPGASVKVSCKASGYTFTTYTIHWVRQAPGQGLEWMGYINPSSGWTRYNPKFKGRVTMTRDKSTSTAYMELRSLRSDDTAVYYCWTGRRDYWGQGTTVTVSS VL: DIQLTQSPSFLSASVGDRVTITCRASSSVSYIYWFQQKPGKAPKLLIYATSTRQSGVPSRFSGSGSGTEYTLTISSLQPEDFATYYCHQRNSFPYTFGQGTKLEIK |  |
|  |  |  |  | 1320 | 1300 | 1140 | 0.374 nM | 1680 | 1700 | 1680 | 1710 | 1460 | Hu6C12-23 (antibody, V domains shown, IgG format; VH.1f + Vk.1b) VH: EVQLVQSGAEVKKPGASVKVSCKASGYTFTTYTIHWVRQAPGQGLEWMGYINPSSDYTRYNPKFKDRVTLTTDTSTSTAYMELRSLRSDDTAVYYCQTGTRDYWGQGTTVTVSS VL: DIQLTQSPSFLSASVGDRVTITCSAASSVSYIYWFQQKPGKAPKLLIYSTSTLPSGVPSRFSGSGSGTEYTLTISSLQPEDFATYYCHQRNSFPFTFGQGTKLEIK |  |
| 90 min | 0.00799 nM | 0.000128 s⁻¹ |  |  |  |  |  |  |  |  |  |  | TPP-7789, affinity matured 6C12 Fab (Fab, V domains shown, Tested as Fab) VH: EVQLVQSGAEVKKPGASVKVSCKASGYTFTTYTIHWVRQAPGQGLEWMGYINPSSGYTRYNPKFKHRVTMTRDKSTSTAYMELRSLRSDDTAVYYCWTGTRDYWGQGTTVTVSS VL: DIQLTQSPSFLSASVGDRVTITCRASSSVRYIYWFQQKPGKAPKLLIYATSTLQSGVPSRFSGSGSGTEYTLTISSLQPEDFATYYCHQRNSFPYTFGQGTKLEIK | kon [1]: 1.61e+07 M⁻¹ s⁻¹ |
|  |  |  |  | 1170 | 1170 | 991 | 0.886 nM | 1570 | 1450 | 1490 | 1530 | 1330 | Hu6C12-22 (antibody, V domains shown, IgG format; VH.1e + Vk.1b) VH: EVQLVQSGAEVKKPGASVKVSCKASGYTFTTYTIHWVRQAPGQGLEWMGYINPSSDYTRYNPKFKDRVTLTTDTSTSTAYMELRSLRSDDTAVYYCATGTRDYWGQGTTVTVSS VL: DIQLTQSPSFLSASVGDRVTITCSAASSVSYIYWFQQKPGKAPKLLIYSTSTLPSGVPSRFSGSGSGTEYTLTISSLQPEDFATYYCHQRNSFPFTFGQGTKLEIK |  |

More lines, now with the values behind:

| Binder | Estimated T½ [2] | Kd [3] | koff [3] | kon [3] | fluorescence intensity [4] | fluorescence intensity [5] | fluorescence intensity [6] | EC50 [7] | fluorescence intensity [8] | fluorescence intensity [9] | fluorescence intensity [10] | fluorescence intensity [11] | fluorescence intensity [12] | also measured |
| --- | --- | --- | --- | --- | --- | --- | --- | --- | --- | --- | --- | --- | --- | --- |
| TPP-7788, affinity matured 6C12 Fab (Fab, V domains shown, Tested as Fab) VH: EVQLVQSGAEVKKPGASVKVSCKASGYTFTTYTIHWVRQAPGQGLEWMGYINPKSGWTRYNPKFKGRVTMTRDKSTSTAYMELRSLRSDDTAVYYCQTGTRDYWGQGTTVTVSS VL: DIQLTQSPSFLSASVGDRVTITCRASSSVSYIYWFQQKPGKAPKLLIYATSFRQSGVPSRFSGSGSGTEYTLTISSLQPEDFATYYCHQRNSFPYTFGQGTKLEIK | 28 min | 0.136 nM | 0.000413 s⁻¹ | 3.03e+06 M⁻¹ s⁻¹ |  |  |  |  |  |  |  |  |  |  |
| TPP-7795, affinity matured 6C12 Fab (Fab, V domains shown, Tested as Fab) VH: EVQLVQSGAEVKKPGASVKVSCKASGYTFTTYTIHWVRQAPGQGLEWMGYINPKSGWTRYNPKFKGRVTMTRDKSTSTAYMELRSLRSDDTAVYYCQTGTRDYWGQGTTVTVSS VL: DIQLTQSPSFLSASVGDRVTITCRASSSVSYIYWFQQKPGKAPKLLIYATSFLQSGVPSRFSGSGSGTEYTLTISSLQPEDFATYYCHQRNSFPYTFGQGTKLEIK |  |  |  |  |  |  |  |  |  |  |  |  |  | percentage of input antibody bound [13]: 73%; percentage of input antibody bound [14]: 86%; percentage of input antibody bound [15]: 51%; percentage of input antibody bound [16]: 63%; percentage of input antibody bound [17]: 74%; percentage of input antibody bound [18]: 95%; percentage of input antibody bound [19]: 63%; percentage of input antibody bound [20]: 29%; percentage of input antibody bound [21]: 63%; percentage of input antibody bound [22]: 39%; percentage of input antibody bound [23]: 22% |
| TPP-7787, affinity matured 6C12 Fab (Fab, V domains shown, Tested as Fab) VH: EVQLVQSGAEVKKPGASVKVSCKASGYTFTTYAIHWVRQAPGQGLEWMGYINPSSGYTRYNPKFKGRVTMTRDKSTSTAYMELRSLRSDDTAVYYCWTGTRDYWGQGTTVTVSS VL: DIQLTQSPSFLSASVGDRVTITCRASSSVSYIYWFQQKPGKAPKLLIYATSTRQSGVPSRFSGSGSGTEYTLTISSLQPEDFATYYCHQRNSFPYTFGQGTKLEIK | 83 min | 0.0222 nM | 0.000139 s⁻¹ | 6.25e+06 M⁻¹ s⁻¹ |  |  |  |  |  |  |  |  |  |  |
| Hu6C12-24 (antibody, V domains shown, IgG format; VH.1g + Vk.1b) VH: EVQLVQSGAEVKKPGASVKVSCKASGYTFTTYTIHWVRQAPGQGLEWIGYINPSSDYTRYNPKFKDRVTLTTDKSTSTAYMELRSLRSDDTAVYYCQTGTRDYWGQGTTVTVSS VL: DIQLTQSPSFLSASVGDRVTITCSAASSVSYIYWFQQKPGKAPKLLIYSTSTLPSGVPSRFSGSGSGTEYTLTISSLQPEDFATYYCHQRNSFPFTFGQGTKLEIK |  |  |  |  | 1770 | 1850 | 1660 | 0.282 nM | 2250 | 2370 | 2540 | 2330 | 2100 |  |
